Measurements taken from a protein production outcome set (Wang et al. 2014).

assay: label from the status in PepcDB records
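Note: failed if final PepcDB status was selected cloned or expressed and not failed if soluble or beyond.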

Row | Sequence | protein production
1 | MHFRLILSMIVVTHTAVVQVLIHMEWIADPSIWAGLVTLVVIELVLGIDNLVFIAILAEKLPPAQRDRARITGLMLAMVMRLLLLASISWLVTLTKPLIVFHDFSFSARDLIMLFGGLFLLFKATVELNERLEGKDSDNPTQRKGAKFWAVVAQIVVLDAIFSLDSVITAVGMVDHLAVMMAAVVIAISLMLMASKALTRFVNSHPTIVILCLSFLLMIGFSLIAEGFSFIIPKGYLYAAIGFSVMIEALNQLAQFNRRRFLSANMTLRQRTTEAVMNLLSGQKEKAELDADTASLVADQDQHPLFNPQERLMIERVLNLNQRSVSSIMTSRHDIERINLSAPEEEIRSLVEKNQHTRLVVTGGKDNEDLLGVVHVIDLLQQSLRQEPLDLQALVRQPLVFPEGLPLLSALEQFRQARTHFAFVVDEFGSVEGIVTLSDVMETIAGNLPNEVEEIDARHDIQHHQDGSWTVNGHMPLEDLVQYVPLPLDDKREYHTVAGLLMEYLQHVPQVGETIEIDGYTLRTLQVDSHRVQKVQIVPPVKQDELDYEV | failed
2 | MHFTRALRIQLIPSFFFRAIYPLVVLLILLHAQSGLAETIYRSTDSHGRTLYSDIPTPAAKPLQPATPPARSKYRVTRVIDGDTIVLENNKRVRLLGINAPETGNRYHPGEPGGADAKKWLRGKLQGRSVYLEHDRQTHDHYKRMLAHLYLPDGEHINLSLVEKGLAIANLIPPNLLHANTLIRAQQRAETRKLGIWSMQHYQPRPLIKLTEKPFGWQRYRVKAKVLKRNHRFSRLIISDNLDLSFANRDLALFPPLETYLNRPLEVRGWVSRRKNHFSIRIQHPSALILY | failed
3 | MHGVEFAPLERQHGSQVLALLRGTLLVPLPRLHQRLEEAYERDARLGLAQVALCRLAGNAEKVVGVLLARVATRRTCCAQVYIDAVAVDAVFQGQGIGSRLLLRVLTPCLPDGLEVREVFLHTPLQATELVAFYRSCGFESDDEVIDNYYPRRWMPQAQALVLRWRPPTAAQHQHEERKGPQDADVS | not failed
4 | MHIPLWHSRVPSATLSRSHSVLLPLSLTAHSPKRARLVAMSTNPEIPQWFALTPRVWTTSVEPESVTCGLVAGEDHVLLIDTGSTPEQGHTLAMSAARMLGRPVDRIVVTHHHYDHSGGLPGITDAEVWMHEAALAHCPDLHVDHPVSLMAYVNLGGLGAEVIHPGPAHTDGDLIVIVRDEKITFVGDLVETAGEPQSDGTTDVRGWPRAIDSVITGTDGAGLYVPGHGQPIDATDVMNQRAQLAERIPTNIPLTDRHIPLP | failed
5 | MHKYRLVAKKGEGTFSEVLKAQCIKNGKYVAIKCMKNHFDSLDQVNNLREIQALRRLSPHANIIKLLEVLYDQPTGRLALVFELMDMNIYELIRGRRHYVAEERIKNYMYQLMKSMDHMHRNGIFHRDIKPENILIMDDCLKLADFGSCRGIYSKQPYTEYISTRWYRAPECLLTDGYYNYKMDMWGVGCVFFEIVSLFPLFPGTNELDQITKIHNILGTPPPDLLAKMKKRSAHMDFNFPPKEGSGVAKLIPHVNPECVDLIVKLLMYNPDERLSARQALRHPYFRDLREAEKRQKALLAPDVSNHFTAMEADKARQQQTVSSTGSDHEHPTSAGGDGGAGTGAVGTHDGSAAAAAAAAALPSISGARGHAGPEGGHDNDMG | not failed
6 | MHLVNIRNQPLGNTIIQVLGVMAFGLFAAVVYMKTSNLIFAIVVHAMNDFMAIMASSGSLSSQQTNPLTILYEWFIFGTLAFALFYTGWTQREKFIAAIQERSPQLTARKLPTLAQSSTFRRIFALVSMIYGILILPTMLLFSKLSTSAGSRAEIANKALPIYLLFLLGIALYIFLIVFFDFHLGNLCWLLLPYIGGPVFALIALVNGARPLTEKTNQSKTINNKTPN | failed
7 | MHMALIHSILMGAVAGMRSMTPLAAVANAARTGKLPADNGAPALLANPLASAGMLALAGGELAGDKMKTAPDRIVLPGMIARIATGVIVGTALAPREQRGIAALLGATTAVAAAYLTFNARMRAIERYGQTSTGVVEDAISVGAATLIVRDAAKR | failed
8 | MHNHNNRLVITPGEPAGVGPDLAITLAQQDWPVELVVCADPALLLARASQLNLPLQLREYQADQPAIAQQAGSLTILPVKTAVNVVPGKLDVGNSHYVVETLAKACDGAISGEFAALVTGPVQKSIINDAGIPFIGHTEFFADRSHCQRVVMMLATEELRVALATTHLPLLAVPGAITQASLHEVITILDNDLKTKFGITQPQIYVCGLNPHAGEGGHMGHEEIDTIIPALNTLRQQGINLIGPLPADTLFQPKYLQHADAVLAMYHDQGLPVLKYQGFGRAVNITLGLPFIRTSVDHGTALELAATGTADVGSFITALNLAIKMINNSNE | not failed
9 | MHNLVPAPKQTQSVLIKNATVHTVIQGVLTNTDVLIENGKISALGPQLSTNTTASTQVVDASGKHLYPGLIALDTSLGLEHHHHHH | failed
10 | MHPKTQQILEVFEEINKIPRRSKHEEQISTWLQEWGRSRGFEVKADSLNNVLIKVPATTGYEDSPTLILQGHMDMVCEKCKDSIHDFSRDPIRCICDGDWMRGDGTSIGADDGIALALGLVMAEAGKKGEIGHPPLELLFTVDEETGLTGARGLETGFFEGKILLNLDSEDEGIFVIGCAGGQNSQITLPVEWELLDFKEENLFRFFRLSVEGLEGGHSGTEINKQRANGIQLLSLALVKLRGKLGIENVRLVLLNGGTVHNAIPSTAEAFIALHGEKLEKAAETMSDIRHAFKAEYAKTDPGLILNFEEISREIIFEVAEDKIPREEVSHVRVFSLETEEKLLELILGLPHGVYRMSETIHGLVETSNNLATVRTAGNEVIIVSSQRSSNNLRLAEISGKVEAISKLAGAWVEHEPGYPAWEPNLKSELILKCKQVYTETFGKEPEIEVIHAGLECGIIGSAHEGMEMISFGPTIKDAHSPAEKIFVPSIEKVWIFLENLFKTYC | failed
11 | MHPVLIFLFALIAILLFTAKFRLHPFLSLVLVSLLTGILAGEPIRTIEAVTEGLGSVFSRFAIIITSGSIIGLLLQKTGGMSLIASDITRFFKNPLLALSFLGFLFSVPTMCYILAYVIFIPIAKELSSRFNYPPISTATALALGAVASFNLVYPSPVIISAAEELSANRDMLILLGFLTAVPTSFSGYLYARSLGKAEVSGMNEGGVIREKTIVKEKKDLSQENGALQRTENRKPGRFEAYAPIFIPLFLILFEAVLNNPNTLFTFLGNPNVALLIGVLLSIFSGRVLGLPMIRVQVEKAIKRSGVVLLDLCGGGALGATLAMTGAGEALGKFFLQFNLPHILVPFLVAAALQTVQGSRVVTMLVAPSLLLPLVPELGLPPEILILSMASGTFMISHVNDPFFWIFGELAELTPSEVFRSNTLGNALMGVVSFLIVSGIYFFFY | failed
12 | MHRLRAAETGDIEAMTDLLLRHGPNPWNHLPEEGVRAHLRAIADGEVRAVLAERDDRLLGFASFRRTEDFAHYQPQRADAPRAYICEAVVHPAAAGQGLGSALLEAVLAQLADEGIEDVYIDRHEENLASAGMMRKAGFVELETYADPARRPNGSGRSTVCHRNLSLQRRAVR | failed
13 | MHRSIRFTFDDRVPRYWHAGRAHTTRFFDCLSFMFPQGEKIFIESVVHFRHKLDKDSALDKAVDDFIYQEASHMREHRAYNQRLCAQGAPVETLERMLLRRRKESARLPASFRLALTASLEHITAILSDQLLRNPAYLKNADPTMAGLWRWHALEEIEHKAVAYDVLCTVERNPLWRYLLRCVAMLSLSVYFTFDLGYFTYHLVRGDKQHRNWREWLRLQWWLFVNPGLLSRIVPAGLFWFVPGFHPNRIDTRALLDTARQALDEQR | failed
14 | MHSLYLGVVKVMAKIILVYANCVNSTAKGDFALAGQIAKDLVREKTSDDIDVVLTSTLDGIARFESLYGKAVDGRVIIEGTSVGLCALELFESVDNEVVAFIEANRCKYAPSDILKRVLSPDSKFLFIGAANQKAIATGDKFTKSWLYISHKGDQPNVYEHFDEDDSLIQSVGLGDDRLGLPSLPKVDELPEMNSTQSQKIPSGEYGFMYLAAVHGIDDVYLMNQYMSLTEMGQYVLVGEYAKQSKEVQMVLHSLQYKGSSVSLTMPQIFFHDSVDNCLMRNMVSKSSGPLVVSTGVMSSIEAMQDGKLTYYQTMSNNTQFVASYLIAVKSICSSDTTLFGSMPKLIIDLSNLLFAEKPLKESQMKEIKSLLGMSSVTSRLGEMNKRIIAKANGTVAGELLSFIGKPKTTQSHKQCISVCMSLRKSGETTSPIFDQALRRAAAWGRLFELKVLIASMSTSDLNKKDKTGNQYTALHWAVMQGHLDCARLLVKSGASVDIQDKSGKSPLHYAIKRGDKETIKLLVQAGASLEIMDDSGAKPCDGSESWVPEYIKSCYEKSGHKSSSLF | failed
15 | MHSTPKRVLLAGATGLTGEHLLDRILSEPTLAKVIAPARKALAEHPRLDNPVGPLAELLPQLDGSIDTAFCCLGTTIKEAGSEEAFRAVDFDLPLAVGKRALEMGARHYLVVSALGADAKSSIFYNRVKGELEQALQEQGWPQLTIARPSLLFGPREEFRLAEILAAPIARILPGKYHGIEACDLARALWRLALEEGKGVRFVESDELRKLGK | not failed
16 | MHSVHPTPKFSIITVTYNAEKVLEDTIQSVISQTYHHVEYIIVDGASKDGTLSIIDRYRPRITTVVSEPDKGLYDAMNKAISLASGDYLCFLNAGDCFHEDDTLQQMVHSIHGSVLPDVIYGETAIVDKDRHFLHMRRLSAPEKLDWKSFKQGMLVCHQAFFARHTLVEPYDLSYRYSADFDWCIRIMKKAYTLHNTHLTIIDYLDEGMTTQNRKASLKERFRIMAKHYGWISTAAHHAWFVLRLIIKPGQLEHHHHHH | not failed
17 | MHTEQALHTRIADIVESIILKKVTPDTALISSGLVDSLAAVDITLAVESEYGCSIPAPEIAEHLQSVRTLAGYVAANSQ | failed
18 | MHTTSGRWGYGLFLALLTALLWGILPIKLKQVLQVVDPITVTWYRLLVSGGLLFAWLAAQRRLPSMRKLAPRGKGLVLVAVLGLMGNYVLYLIGLKLLSPGTAQLVVQIGPVLLLVASVFVFRERFSVGQGMGLLVLLAGFGLFFNQRLEELLTSLGTYTTGVLTILLATSIWVFYALSQKQLLTVWHSQQVMMVIYLSCAALLTPWVHPLEALQLTPVQGWLLLACCLNTLVAYGAFAEALAHWEASRVSATLALTPLVTFVAVALAAWVWPEYVHAEDINALGYVGAVTVVFGSALVALGPSLVTSWRARRERGQRAYSSEG | failed
19 | MHVQEWLETVPAVSIYALVGLVIGLESLGIPLPGEIVLISAALLSSQHGGINPVILGICATVGAVVGDSIGYAIGRKGGRPLLAWLGNKFPRHFGEGHIATAERSFEKWGMWAVFFGRFVALLRIFAGPLAGVLRMPYWKFLIANVLGGIIWAGGTTAVIYYVGVVAESWLKRFSYLGLVAAVLIGLASMLVIKRKAKKAAAEREAAEPETVPAAD | failed
20 | MHYRWTLLTLAASLLCVPSASGLAEFGIEGMGVVSTPANEARATLSPDGQRIVWASDRTGGTGGWDLWQAQLRGGRWQDAQPLPINTAQDETTPLFSADGRWLLFASTRPGGAGGSDLYRAPVDAQGAVGPVQSLGAAIDSAGNERAPTLSLDGTRLLFASDGHGGAGGMDLFVAHWDGQAFTAPVALVDINSAADELDAAWLGDGRALVWARGKTDDPSQLLLAICKDGHFVQGSPLPLSFNGPQERTFGAVVDTAKPGELLVTGSARAPRAGQLDIYRMKAPAADGDASCR | failed
21 | MHYSYLEPGLHAELAAITPDEAVAHLRNHLGNLLLDPAVTAAYINRLGVLTPEETTPSTRAWLTYLLVRYCDLLPLDLAAQRILAQVTGNAAPHLRDLERCAIPDPIERKLERLGAGEDSERNRAMLLALLHEYPYSPAIMERLMTVELALDIPVGGEWLPSVRPPAGLLRPLHERLFIHAMMQGDTERALQHAAACVPDNPSPHLLNHLAELHARLGDTQQALNLYGASLEADPLQHPVRLRMEALAKPPRAHADALHHRIAICLYSFNKAELLERTLSSLAASQTGEAHILVLLNGCTDDSATRVAAVNERLFNGRLEVIDMPINIGAPAARNWLLAKQTVREADFVAFLDDDVDVPAAWLPRLVGNLEEHPGAGVAGTRVRNPGDVPRLQYLYRNISVARPGLIRLSLDTPTLHHDTGFYDFTRSTTSVMGCCHVFTRRALDEVPAFDLRFSPSQMDDIAHDIDLALAGFDVLYTGDVVCVHHQMSGLGRANATDWKRFGNVAGNDVKFYYRFADRLDALGRLNNLGFMPDMPPALEHHHHHH | not failed
